Experimental findings from US9486502B2, “Methods of administering interferon gamma to absorb fluid from the subretinal space” (The United States of America, as represented by the …, priority 2008, dated 2016) are described below.

In one assay the test system is hfRPE monolayers. The experiment in a line: electrophysiology of hfRPE monolayers (TEP, RT, VA, VB, RA/RB). Type of assay: cell-based, human. From the text: Equivalent circuit analysis and electrophysiological methods have been previously described in Quinn, R. H., et al., Invest Ophthalmol Vis Sci, 1992, 33, 3513-3527; Joseph D. P., et al., J Physiol, 1991, 435, 439-463; and Maminishkis, A., et al., 2006, Ophthalmol Vis Sci, 47, 3612-3624each incorporated herein by reference in its entirety.
Briefly, confluent monolayers of cultured hfRPE were mounted on a nylon mesh support and clamped into a modified Üssing chamber that allowed the rapid exchange of Ringer's solution (≈10 chamber volumes per minute) and the measurement of fast electrical changes in seconds. The electrical connections to the apical and basal chambers were made with Ringer-agar bridges in series with calomel electrodes. Intracellular potentials were recorded with conventional microelectrodes, back-filled with 150 mM KCl, with resistances of 80 to 200 Ma The apical and basolateral membrane potentials (VA and VB) are calculated as the voltage differences between the intracellular microelectrode and the apical and basal bath electrodes, respectively. The resistances of the apical and basolateral membranes were designated RA and RB, respectively, and the transepithelial potential (TEP=VB-VA) is the voltage difference between the apical and basal bath electrodes. Epithelial resistance parameters were obtained by passing 4-μA bipolar current pulses (i) using Ag—AgCl electrodes, one located in the apical chamber and the other located in the basal chamber. The total transepithelial resistance (Rt) is calculated from the current-induced changes in TEP (Rt=ΔTEP/i). The apparent membrane resistance ratio (RA/RB) is calculated from the ratio of change in VA to change in VB (RA/RB=ΔVA/ΔVB).
The control Ringer's solution for measurements of TEP and Rt in culture hfRPE contained 116 mM NaCl, 5 mM KCl, 26.2 mM NaHCO3, 1 mM NaH2PO4, 1 mM Mg Cl2, 1.8 mM CaCl2, 10 mM glucose, and 2 mM Taurine. The osmolarity of control Ringer's solution was 295 mOsm. The solutions were maintained at 35° C. and a pH of 7.4, and were bubbled with 10% O2, 5% CO2 and 85% N2. 8-Bromo-cAMP (or Dibutyryl cAMP), 8-Br-cGMP, and forskolin were obtained from Sigma-Aldrich.

Another assay concerns rat RPE. Briefly: in vivo retinal re-attachment assay (OCT). As for the experimental part:
All animal experiments were conducted in compliance with the ARVO Statement for the use of Animals in Ophthalmic and Vision Research, and the protocol was approved by the Animal Care and Use Committee of the National Institutes of Health. The procedures have been described in detail in Maminishkis, A., et al., Invest Ophthalmol Vis Sci, 2006, 47, 3612-3624, incorporated by reference in its entirety herein. Briefly, retinal detachments were created in long-Evans rats by injecting 0.5 to 3 μl of modified phosphate-buffered saline (MPBS) Ringer's solution into the sub-retinal space (SRS), which separates the photoreceptor outer segments and the apical membrane of the RPE. In the control portion of each experiment (at 0-70 minutes after creation of the retinal detachment), the rate of change of bleb volume was measured. The control period of “constant” volume was defined by JV≦2 μl hr cm over at least 40 minutes. Any control injections that exceeded this threshold rate were rejected from subsequent analysis.
IFNγ was dissolved in MPBS, mixed with Celluvisc® solution (1:1) and applied as eye-drops (0.4 mL). Optical coherence tomography (OCT) imaging (Institute of Applied Physics, Russian Academy of Science, Nizhniy Novgorod, Russia) was used to measure the time course of the detachment volume change.
A previously tested in vivo rodent model of retinal detachment was used to measure the effect of IFNγ on re-absorption following retinal detachment, as described in Example 11 and in Maminishkis, A., et al., Invest Ophthalmol Vis Sci, 2002, 43, 3555-3566, incorporated herein by reference in its entirety. Initial detachment was created by injecting approximately 1 μl of osmotically-balanced, modified phosphate-buffered saline (MPBS) Ringer's solution into the extracellular space, i.e. the sub-retinal space (SRS). After stabilization of the detachment, IFNγ (40 μl of 100 ng/ml) was added to the anterior surface of the eye via eye drops (Celluvisc®). A series of 3D OCT images were recorded at different time points.

A further assay has as its system hfRPE monolayer. The experiment in a line: fluorescence imaging of intracellular calcium. Type of assay: cell-based, human. The conditions noted are these: IFNγ 0.5, 5, 50 ng/ml both sides; n=4. As for the experimental part: Therefore, whether the CFTR pathway was involved in the response to IFNγ was examined using cAMP assays as described in Example 8. Primary cultures of hfRPE cells were incubated in control media, in the presence of IFNγ (0.5, 5, or 50 ng/ml), or in forskolin containing media (10 μM) for different amounts of time (5 minutes, 45 minutes, 12 hours, or 24 hours), and then total intracellular cAMP levels were measured using a cAMP ELISA System (Applied Biosystems, Foster City, Calif.). […] (n=3; P<0.05). […] In a separate set of experiments, fluorescence imaging was used to measure the intracellular concentration of calcium [Ca^2+]I in the presence of IFNγ (0.5, 5, 50 ng/ml) added to both sides of the hfRPE monolayer and no change in total cell [Ca^2+]I was observed (n=4, data not shown).
On the technique in general: Calcium assays in cells follow changes in intracellular calcium, usually with a dye or a luminescent sensor.

Where [1] appears, read: IFNγ 100 ng/ml apical and basal, FIG. 17A.
The mark [2] stands for this setting: IFNγ 500 ng/mL apical and basal, FIG. 22.

B1: IFNγ: pleiotropic cytokine produced by T- and NK-cells; obtained from Peprotech (protein, UniProt P01579 24-161, looked up)
Interferon gamma: QDPYVKEAENLKKYFNAGHSDVADNGTLFLGILKNWKEESDRKIMQSQIVSFYFKLFKNFKDDQSIQKSVETIKEDMNVKFFNSNKKKRDDFEKLTNYSVTDLNVQRKAIHELIQVMAELSPAAKTGKRKRSQMLFRG
Regarding B1, in the assay on hfRPE monolayers (setting [1]), the RT decrease is 15 Ω·cm^2 and the TEP increase is given as 0.9 mV. Also, in the assay with hfRPE monolayers (setting [2]), the “depolarization of both VA and VB” value is “approximately 2.5 mV”; the “increase in RA/RB” value was found to be 0.2; the “increase in TEP” value is reported as 0.3 mV. Moreover, in the assay on hfRPE monolayers (IFNγ, mean of experiments), the “ΔRT (decrease)” value is on record as 17±2 Ω·cm^2 and the “ΔTEP (increase)” value was 0.5±0.1 mV. Moreover, in the assay on rat RPE (IFNγ eye drops on anterior surface, t=0 to 40 minutes, FIG. 23B/E), the “JV (fluid transport rate out of the retinal detachment)” value is 12 μl·cm^−2·hr^−1. In the assay with rat RPE (IFNγ on anterior surface of the eye), the “time in which rate of fluid absorption from subretinal space was significantly increased” value was “less than 30 minutes”. In addition, the “detachment size (volume)” value with rat RPE (IFNγ on anterior surface, 40 or 54 minutes) was “decrease in detachment size”. In addition, in the assay on hfRPE monolayer, the “total cell [Ca^2+]I” value is listed as “no change”.
